Measurements from article PMC12669776.

Tests used:
Experiment in all cases: EMSA
[1] = test system: PRC2-AEBP2L(TEV)-JARID2, uncleaved (Homo sapiens); conditions: no TEV; Hill 2.4 ± 0.2; CpG24 EMSA/FA: 50 mM Tris pH 7.5, 100 mM KCl (FA 25/50/100), 0.05% NP40, 0.1 mg/ml BSA, 2 mM 2-ME, 30 C; CpG46 FA: 20 mM Tris pH 8.0, 100 mM NaCl, 0.1 mM …
[2] = test system: PRC2-AEBP2L-JARID2 wild-type (Homo sapiens), Q6ZN18-2+Q92833+Q15910-2+Q15022+O75530+Q09028; conditions: 2.5 mM Mg2+, 100 mM NaCl; CpG24 EMSA/FA: 50 mM Tris pH 7.5, 100 mM KCl (FA 25/50/100), 0.05% NP40, 0.1 mg/ml BSA, 2 mM 2-ME, 30 C; CpG46 FA: 20 mM Tris pH 8.0, 100 mM NaCl, 0.1 mM …
[3] = test system: PRC2-AEBP2L(TEV)-JARID2 cleaved with TEV (Homo sapiens); conditions: with TEV; Hill 2.7 ± 0.4; CpG24 EMSA/FA: 50 mM Tris pH 7.5, 100 mM KCl (FA 25/50/100), 0.05% NP40, 0.1 mg/ml BSA, 2 mM 2-ME, 30 C; CpG46 FA: 20 mM Tris pH 8.0, 100 mM NaCl, 0.1 mM …
[4] = test system: PRC2-AEBP2L mt1A2A-JARID2 E37A;E38A;E39A;E40A;E41A;E42A;E43A;E44A;E45A;E46A;E47A;E48A;E95A;D96A;E97A;D98A;E99A;E100A;E101A;D102A;D103A;E104A;E105A;E106A;E107A;D108A;E109A (Homo sapiens), Q6ZN18-2+Q92833+Q15910-2+Q15022+O75530+Q09028; conditions: 2.5 mM Mg2+, 100 mM NaCl; CpG24 EMSA/FA: 50 mM Tris pH 7.5, 100 mM KCl (FA 25/50/100), 0.05% NP40, 0.1 mg/ml BSA, 2 mM 2-ME, 30 C; CpG46 FA: 20 mM Tris pH 8.0, 100 mM NaCl, 0.1 mM …

For NCP182, the Kd [1] was 24.8 nM, the Kd [2] was 33 nM and the Kd [3] was 18.7 nM. It also gave a Kd [4] of 15.6 nM.
